Numbering of substitutions follows the chain as printed. Several values for one entry are separate records, joined by “and”; a condition that tells them apart may be missing. Equal entries are not always repeated.
T1: fHbp m002413 (Neisseria meningitidis, designed fHbp …, chimera)
T1 chain: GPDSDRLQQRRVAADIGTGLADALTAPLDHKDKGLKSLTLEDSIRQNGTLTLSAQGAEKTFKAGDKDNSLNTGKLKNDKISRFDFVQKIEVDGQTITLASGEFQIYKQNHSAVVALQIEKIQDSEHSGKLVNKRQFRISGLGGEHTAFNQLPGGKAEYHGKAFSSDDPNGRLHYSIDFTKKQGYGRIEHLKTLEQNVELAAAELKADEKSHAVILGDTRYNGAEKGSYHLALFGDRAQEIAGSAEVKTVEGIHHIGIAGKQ

T2: fHbp m001929 (Neisseria meningitidis; fHbp …, chimera)
T2 chain: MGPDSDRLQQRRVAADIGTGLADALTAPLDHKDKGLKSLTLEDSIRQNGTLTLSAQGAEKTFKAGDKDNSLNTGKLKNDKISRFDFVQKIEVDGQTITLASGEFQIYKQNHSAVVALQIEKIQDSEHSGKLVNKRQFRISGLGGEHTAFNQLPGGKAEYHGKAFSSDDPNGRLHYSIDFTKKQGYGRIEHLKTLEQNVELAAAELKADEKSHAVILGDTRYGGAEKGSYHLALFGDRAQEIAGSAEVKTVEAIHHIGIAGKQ

T3: fHbp m002415 (Neisseria meningitidis, designed fHbp …, chimera)
T3 chain: T1 chain with G251A

T4: fHbp m002389 (Neisseria meningitidis; fHbp …, chimera)
T4 chain: T2 chain with G222N, T249S, E251N, A252G

T5: fHbp m001932 (Neisseria meningitidis; fHbp …, chimera)
T5 chain: T2 chain with E251N

T6: fHbp m001927 (Neisseria meningitidis; fHbp …, chimera)
T6 chain: T2 chain with A252G

T7: fHbp m001928 (Neisseria meningitidis; fHbp …, chimera)
T7 chain: T2 chain with A252S

T8: fHbp m002416 (Neisseria meningitidis, designed fHbp …, chimera)
T8 construct: also called fHbp 2,416; Round 2 best mutant
T8 chain: T1 chain with E250N

T9: fHbp m002392 (Neisseria meningitidis; fHbp …, chimera)
T9 chain: T2 chain with G222N, T249S, E251V, A252G

B1: mAb 1E6 (human) (antibody, V domains shown)
VH: EVQLVQSGAEVKKPGSSVKVSCKASGGTVIDYPITWVRQAPGQGLEWVGGFVPLFRTSNYGQKFQGRVTITADKSTSTASMELNSLTSEDTAIYYCARGDTAMGPFDYWGQGTLVTVSS
VL: SYVLTQPPSLSVAPGKTATLTCGGNNIAGKTVHWYQQRPGQAPVLVISYDSDRPSGIPERFSGSNSANTATLTISRVEAGDEADYYCQVWDRNSDHWVFGGGTKLTVL
notes: source: Expi293, purified (MabSelect SuRe, SEC); copies: 2 + 2
B2: chimeric antibody hJAR5 (antibody, V domains shown)
VH: QVQMQQPGAELVKPGASVKLSCKASGYTFISYWMHWVKQRPGRGLEWIGRIAPDTGIIYYNEKFKNKATLTVDTPSSTAYMQLNSLTSEDSAVYYCARYLKYDGSTYRFDYWGQGTTLTVSS
VL: DIVMTQAAPSVPVTPGESVSISCRSSKSLLHSNGNTYLFWFLQRPGQSPQLLIYRMSNLASGVPDRFSGSGSGTSFTLRISRVEAEDVGVYYCMQHLEYPYTFGGGTKLEIK
notes: also called hJAR5-2; humanized JAR5; source: Expi293, purified (MabSelect SuRe, SEC); copies: 2 + 2
B3: mAb 4B3 (human) (antibody, V domains shown)
VH: QVQLVQSGGGLVKPGGSLRLSCAASGFPFSSYYMSWIRQAPGKGLEWVSDINNSGNVKEYADFVKGRLTISRDNVKNSMYLHMNSLRVEDTAVYYCARNRGRFDVWGQGTLVTVSA
VL: EIVMTQSPGTLSLSPGETATLSCRASQMISSPFLAWYQQRRGQAPRLLIYGASTRATDTPDRFRGSGSGTDFILTISRLEPEDFAVYYCQYYDDSPFTFGQGTKLEIK
notes: also called 4B3-2; source: Expi293, purified (MabSelect SuRe, SEC); copies: 2 + 2
B4: chimeric antibody h12C1 (antibody, V domains shown)
VH: QVQLQESGPELVKPGASVKISCKASGYSFSDYNMSWVKQSNGKSLEWIGIIDPKYGTINYNQKFKGKATLTVDQASSTAYMQLNSLTSEDSAVYYCVRDYYGSSYFDYWGQGTTLTVSS
VL: DIVLTQSPSSIYASLGERVTLTCKASQDIHNYLNWFQQKPGKSPKTLIYRANRLVDGVPSRFSGGGSGQDYSLTISSLEFEDIGIYYCLQYDEFPPTFGGGTRLEIK
notes: also called humanized 12C1; source: Expi293, purified (MabSelect SuRe, SEC); copies: 2 + 2

Columns and labels:
Assay in all cases: BLI
Conditions in all cases: both partners purified
fHbp m002413 = biological target: T1, fHbp m002413
fHbp m001929 = biological target: T2, fHbp m001929
fHbp m002415 = biological target: T3, fHbp m002415
fHbp m002389 = biological target: T4, fHbp m002389
fHbp m001932 = biological target: T5, fHbp m001932
fHbp m001927 = biological target: T6, fHbp m001927
fHbp m001928 = biological target: T7, fHbp m001928
fHbp m002416 = biological target: T8, fHbp m002416
fHbp m002392 = biological target: T9, fHbp m002392

| Binder | Kd (fHbp m002413) | koff (fHbp m002413) | kon (fHbp m002413) | Kd (fHbp m001929) | koff (fHbp m001929) | kon (fHbp m001929) | Kd (fHbp m002415) | koff (fHbp m002415) | kon (fHbp m002415) | Kd (fHbp m002389) | koff (fHbp m002389) | kon (fHbp m002389) | Kd (fHbp m001932) | koff (fHbp m001932) | kon (fHbp m001932) | Kd (fHbp m001927) | koff (fHbp m001927) | kon (fHbp m001927) | Kd (fHbp m001928) | Kd (fHbp m002392) | also measured |
| --- | --- | --- | --- | --- | --- | --- | --- | --- | --- | --- | --- | --- | --- | --- | --- | --- | --- | --- | --- | --- | --- |
| B1 | 660 pM | 0.000271 s⁻¹ | 410700 ± 2050 M⁻¹ s⁻¹ | 235 pM | 9.11e-05 s⁻¹ | 387500 ± 2190 M⁻¹ s⁻¹ | 831 pM | 0.000302 s⁻¹ | 363300 ± 1200 M⁻¹ s⁻¹ | 818 pM | 0.000272 s⁻¹ | 332200 ± 1430 M⁻¹ s⁻¹ | 303 pM | 0.000105 s⁻¹ | 347000 ± 1890 M⁻¹ s⁻¹ | 293 pM | 0.000118 s⁻¹ | 402600 ± 1680 M⁻¹ s⁻¹ | 174 pM | 515 pM | koff (fHbp m001928): 0.000163 s⁻¹; kon (fHbp m001928): 937300 ± 2910 M⁻¹ s⁻¹; koff (fHbp m002416): 0.000104 s⁻¹; kon (fHbp m002416): 322000 ± 2420 M⁻¹ s⁻¹; koff (fHbp m002392): 0.000157 s⁻¹; kon (fHbp m002392): 305400 ± 1880 M⁻¹ s⁻¹ |
| B2 | 1090 pM | – | – | 348 pM | – | – | 664 pM | – | – | 772 pM | – | – | 3730 pM | – | – | 824 pM | – | – | 741 pM | 711 pM and 689 pM | – |
| B3 | 4570 pM and 3740 pM | 0.00112 s⁻¹ and 0.00115 s⁻¹ | 245000 M⁻¹ s⁻¹ and 307000 M⁻¹ s⁻¹ | 2630 pM | 0.000635 s⁻¹ | 242000 ± 2590 M⁻¹ s⁻¹ | 3780 pM | 0.00101 s⁻¹ | 267700 ± 1540 M⁻¹ s⁻¹ | 4010 pM and 3220 pM | 0.000912 s⁻¹ and 0.00101 s⁻¹ | 227000 M⁻¹ s⁻¹ and 315000 M⁻¹ s⁻¹ | 814 pM | 0.000321 s⁻¹ | 394600 ± 1740 M⁻¹ s⁻¹ | 3640 pM | 0.000943 s⁻¹ | 259300 ± 1550 M⁻¹ s⁻¹ | 4250 pM | 2950 pM | koff (fHbp m001928): 0.00106 s⁻¹; kon (fHbp m001928): 248300 ± 1560 M⁻¹ s⁻¹; koff (fHbp m002416): 0.00113 s⁻¹; kon (fHbp m002416): 296100 ± 925 M⁻¹ s⁻¹; koff (fHbp m002392): 0.00106 s⁻¹; kon (fHbp m002392): 359400 ± 1640 M⁻¹ s⁻¹ |
| B4 | 1100 pM | 0.000237 s⁻¹ | 214700 ± 1140 M⁻¹ s⁻¹ | 45900 pM | 0.00802 s⁻¹ | 175000 ± 4560 M⁻¹ s⁻¹ | 66700 pM | 0.00939 s⁻¹ | 141000 ± 2240 M⁻¹ s⁻¹ | 1160 pM | 0.000257 s⁻¹ | 220700 ± 1060 M⁻¹ s⁻¹ | 35200 pM | 0.0057 s⁻¹ | 161900 ± 1160 M⁻¹ s⁻¹ | 380 pM | 7.94e-05 s⁻¹ | 209200 ± 1710 M⁻¹ s⁻¹ | 55300 pM | 892 pM | koff (fHbp m001928): 0.0146 s⁻¹; kon (fHbp m001928): 264000 ± 5240 M⁻¹ s⁻¹; koff (fHbp m002416): 5.89e-05 s⁻¹; kon (fHbp m002416): 201100 ± 1150 M⁻¹ s⁻¹; koff (fHbp m002392): 0.000212 s⁻¹; kon (fHbp m002392): 237100 ± 1550 M⁻¹ s⁻¹ |

Source: publication PMC12319226 (Frontiers in Bioinformatics, 2025)
